Measured values reported in publication PMC3962550.

Molecular target: epidermal growth factor (EGF) receptor expressed in 32D mouse myeloid cells (32D/EGFR) (UniProt P00533)

B1: amphiregulin (ligand)
chain: SVRVEQVVKPPQNKTESENTSDKPKRKKKGGKNGKNRRNRKKKNPCNAEFQNFCIHGECKYIEHLEAVTCKCQQEYFGERCGEKSMK
EC50 of AR for IL3-independent proliferation of 32D/EGFR cells, without EGF: 8.3 nM
